Key:
[1] = PAA generation with different perhydrolases and substrates, HPLC Karst assay; assay type: biochemical
Method: HC1121 is a CE-7 class carbohydrate esterase from Thermotoga maritima (C2775-HC263; SEQ ID NO: 288), and HC1169 is an aryl esterase from M. smegmatis (ArE-HC263; SEQ ID NO: 323). Both enzymes were tested for their perhydrolytic activity with substrates triacetin or propylene glycol diacetate (PGDA, Aldrich 528072) and hydrogen peroxide between pH 5 and pH 7.2. Enzyme free reactions for some reaction conditions were run to determine the non-enzymatic generation of peracetic acid as well. At the end of reaction, the reaction was quenched by acidification 10 or 25 fold with 100 mM H3PO4. The quenched samples were filtered using a NANOSEP® MF centrifugal device (30K Molecular Weight Cutoff (MWCO), Pall Life Sciences, Ann Arbor, Mich., P/N OD030C35) by centrifugation for 6 min at 12,000 rpm. The filtrates were assayed by HPLC Karst assay in duplicates to determine the amount of peracetic acid (PAA) generated at those reaction conditions.

[2] = Two-step treatment of hair tresses, tress tensile strength; conditions: 1500 μg/mL (E/H 6), deposition 5 min, 0.5 M H2O2, 1 M TA, 2 hr/cycle
Method: Medium brown hair was used in these examples. Stock hair swatches were custom made by International Hair Importers (Glendale, N.Y.). Each swatch had 1500 mg of 50% reversed hair, soft glued in the middle with glue thickness of 1 mm and width of 2 cm.
Test-hair-sample consisted of a hair bundle of approximately 50 mg hair of 4 cm length, held together by a 1 mm thick, 2 mm wide and 5 mm long glue strip. A sheet of BYTAC® (TYPE VF-81, Saint-Gobain Performance Plastics, Wayne, N.J.) was attached to a polystyrene cover-plate, providing a TEFLON®-coated test-surface for mounting and treatment of hair. A strip of double-sided scotch tape was applied on the BYTAC® surface, closer to the top edge of the test plate. The glued side of the test-hair-sample was pressed down on the exposed side of the tape, making sure that the unglued hair strands are completely clear of the tape. The glued parts of the tress and exposed double-sided tape surface were covered with a strip of clear single-sided tape. Although the method is described for a single test-hair-tress, 4 tresses were used for each test condition and were placed side-by-side during the entire treatment.
The test tress was wetted by tap water and the excess water was absorbed with a paper towel. The calculated volume of the enzyme formulation was applied and was worked in gently and evenly into hair strands with gloved fingers for ˜30 seconds and let the formulation soak in for the specified deposition time. The tress was then rinsed with tap water agitated through a peristaltic pump for 20 seconds, to completely remove the surfactant.
Excess water was removed from the wetted tress from the previous step by absorption on a paper towel. The requisite volumes of the substrates (H2O2 and triacetin (TA)) were applied onto the test-tress. The mixture was rubbed into the hair strand firmly and evenly, with gloved finger for ˜1 min. The tress was left semi-covered for the specified treatment time.
Test-hair was washed with a diluted surfactant solution by rubbing the surfactant into hair with enough vigor to foam, for one minute to remove all traced of oils and residues arising during tress preparation or from previous cycles. Hair was rinsed thoroughly with tap water, agitated through a peristaltic pump for 35 seconds, while gently opening tresses with gloved fingers to ascertain that all adherents (surfactant or moisturizer) are dislodged. Excess moisture was absorbed by pressing down the paper towel over the tress. This would mark the end of one cycle. Treatment cycles were repeated starting from the enzyme-deposition step until the desired number of cycles was reached.
Two samples from each experiment were subjected to Tensile assay as described in Example 23, to determine the extent of hair-weakening.
The following experiments followed the general method of treatment disclosed in Example 25. Solutions were made in 5% TWEEN®-20 surfactant in 50 mM citrate buffer at pH 6. […] H2O2 and triacetin, formulations were made according to Example 24, in 20% LUBRIDERM® lotion in 50 mM citrate buffer at pH 6. After application of the reagents, the treatment was allowed to continue for 24 hr, as in daily application. TWEEN®-20 (5% in 50 mM citrate buffer at pH 6) was used for the final surfactant wash. The treatment was repeated for 15 additional cycles, 16 days in all.
The following experiments followed the general method of treatment disclosed in Example 26, except that after application of the reagents, the treatment was allowed to continue for shorter times per cycle rather than 24 hours per cycle.
Enzyme solutions were made in 0.5% or 5% TWEEN®-20 surfactant in 50 mM citrate buffer at pH 6. […] H2O2 and triacetin, formulations were made according to Example 24, in 20% LUBRIDERM® lotion (Johnson & Johnson, New Brunswick, N.J.) in 50 mM citrate buffer at pH 6. After application of 400 μL each of the reagents, the treatment was allowed to continue for 20-40 min. […]

B1: SEQ ID NO: 323: S54V variant of the aryl esterase from Mycobacterium smegmatis fused to hair binding domain HC263 via a flexible linker (protein)
chain: MAKRILCFGDSLTWGWVPVEDGAPTERFAPDVRWTGVLAQQLGADFEVIEEGLVARTTNIDDPTDPRLNGASYLPSCLATHLPLDLVIIMLGTNDTKAYFRRTPLDIALGMSVLVTQVLTSAGGVGTTYPAPKVLVVSPPPLAPMPHPWFQLIFEGGEQKTTELARVYSALASFMKVPFFDAGSVISTDGVDGIHFTEANNRDLGVALAEQVRSLLGPGSGGAGSPGSAGGPGSPSAQSQLPDKHSGLHERAPQRYGPEPEPEPEPIPEPPKEAPVVIEKPKPKPKPKPKPPAHDHKNQKETHQRHAAGSGGGGSPHHHHHH
B1 showed a PAA ([1]; 10 μg/mL enzyme, 250 mM PGDA, 100 mM H2O2, pH 5, 100 mM citrate buffer, 30 min) of 4158 ppm, a PAA ([1]; 10 μg/mL enzyme, 250 mM PGDA, 100 mM H2O2, pH 5.6, 100 mM citrate buffer, 30 min) of 4482 ppm and a PAA ([1]; 10 μg/mL enzyme, 250 mM PGDA, 100 mM H2O2, pH 6, 100 mM citrate buffer, 30 min) of 4647 ppm. For the same molecule, the PAA ([1]; 10 μg/mL enzyme, 250 mM PGDA, 100 mM H2O2, pH 6.6, 100 mM phosphate buffer, 30 min) was 4608 ppm, the PAA ([1]; 10 μg/mL enzyme, 250 mM PGDA, 100 mM H2O2, pH 7.2, 100 mM phosphate buffer, 30 min) was 4450 ppm and the PAA ([1]; 10 μg/mL enzyme, 250 mM triacetin, 100 mM H2O2, 20% LUBRIDERM® in pH 7.2, 100 mM phosphate buffer, 60 min) was 3433 ppm. It also gave a PAA ([1]; 20 μg/mL enzyme, 250 mM PGDA, 100 mM H2O2, pH 5, 100 mM citrate buffer, 30 min) of 4140 ppm, a PAA ([1]; 20 μg/mL enzyme, 250 mM PGDA, 100 mM H2O2, pH 5.6, 100 mM citrate buffer, 30 min) of 4403 ppm and a PAA ([1]; 20 μg/mL enzyme, 250 mM PGDA, 100 mM H2O2, pH 6, 100 mM citrate buffer, 30 min) of 4609 ppm. For the same molecule, the PAA ([1]; 20 μg/mL enzyme, 250 mM PGDA, 100 mM H2O2, pH 6.6, 100 mM phosphate buffer, 30 min) was 4526 ppm, the PAA ([1]; 20 μg/mL enzyme, 250 mM PGDA, 100 mM H2O2, pH 7.2, 100 mM phosphate buffer, 30 min) was 4726 ppm and the PAA ([1]; 20 μg/mL enzyme, 250 mM triacetin, 100 mM H2O2, pH 5, 100 mM citrate buffer, 30 min) was 3680 ppm. The PAA ([1]; 20 μg/mL enzyme, 250 mM triacetin, 100 mM H2O2, pH 5.6, 100 mM citrate buffer, 30 min) was 4429 ppm, the PAA ([1]; 20 μg/mL enzyme, 250 mM triacetin, 100 mM H2O2, pH 6, 100 mM citrate buffer, 30 min) was 4616 ppm and the PAA ([1]; 20 μg/mL enzyme, 250 mM triacetin, 100 mM H2O2, pH 6.6, 100 mM phosphate buffer, 30 min) was 4488 ppm. For the same molecule, the PAA ([1]; 20 μg/mL enzyme, 250 mM triacetin, 100 mM H2O2, pH 7.2, 100 mM phosphate buffer, 30 min) was 4812 ppm and the TS [2] was 0.28 N/mgH.

Source: US20130171217A1, “ENZYMATIC PERACID GENERATION FOR USE IN SKIN CARE PRODUCTS” (E I DU PONT DE NEMOURS AND COMPANY, priority 2010, published 2013)
